Test system: NCCCC(=O)O
Description: Michaelis-Menten constant of the compound.

4-aminobutyrate aminotransferase, mitochondrial (Sus scrofa), P80147, sequence (P80147 whole entry): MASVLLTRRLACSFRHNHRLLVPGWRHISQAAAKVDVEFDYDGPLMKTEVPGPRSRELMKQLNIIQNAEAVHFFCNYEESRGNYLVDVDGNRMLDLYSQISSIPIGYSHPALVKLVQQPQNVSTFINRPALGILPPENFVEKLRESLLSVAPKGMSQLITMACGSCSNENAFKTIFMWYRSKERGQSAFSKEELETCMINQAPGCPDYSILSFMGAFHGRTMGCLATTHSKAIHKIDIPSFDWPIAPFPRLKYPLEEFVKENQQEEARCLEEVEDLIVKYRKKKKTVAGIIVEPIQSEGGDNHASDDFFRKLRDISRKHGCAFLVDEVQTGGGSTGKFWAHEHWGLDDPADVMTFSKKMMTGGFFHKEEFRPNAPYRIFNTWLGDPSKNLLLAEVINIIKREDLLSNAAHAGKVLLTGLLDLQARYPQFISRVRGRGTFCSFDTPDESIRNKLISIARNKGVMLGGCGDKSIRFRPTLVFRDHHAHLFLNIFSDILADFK

4-aminobutyrate aminotransferase, mitochondrial (Sus scrofa), P80147
Km: 2500 µM

— ChEMBL document CHEMBL1132182, “2,6-Difluorophenol as a bioisostere of a carboxylic acid: bioisosteric analogues of gamma-aminobutyric acid” (J Med Chem, 1999)
